Laboratory results published in US10005846B2, “Anti-transglutaminase 2 antibodies” (MEDICAL RESEARCH COUNCIL TECHNOLOGY, priority 2012, dated 2018).

T1: human TG2 (Homo sapiens, UniProt P21980)
T1 sequence (P21980 1-687): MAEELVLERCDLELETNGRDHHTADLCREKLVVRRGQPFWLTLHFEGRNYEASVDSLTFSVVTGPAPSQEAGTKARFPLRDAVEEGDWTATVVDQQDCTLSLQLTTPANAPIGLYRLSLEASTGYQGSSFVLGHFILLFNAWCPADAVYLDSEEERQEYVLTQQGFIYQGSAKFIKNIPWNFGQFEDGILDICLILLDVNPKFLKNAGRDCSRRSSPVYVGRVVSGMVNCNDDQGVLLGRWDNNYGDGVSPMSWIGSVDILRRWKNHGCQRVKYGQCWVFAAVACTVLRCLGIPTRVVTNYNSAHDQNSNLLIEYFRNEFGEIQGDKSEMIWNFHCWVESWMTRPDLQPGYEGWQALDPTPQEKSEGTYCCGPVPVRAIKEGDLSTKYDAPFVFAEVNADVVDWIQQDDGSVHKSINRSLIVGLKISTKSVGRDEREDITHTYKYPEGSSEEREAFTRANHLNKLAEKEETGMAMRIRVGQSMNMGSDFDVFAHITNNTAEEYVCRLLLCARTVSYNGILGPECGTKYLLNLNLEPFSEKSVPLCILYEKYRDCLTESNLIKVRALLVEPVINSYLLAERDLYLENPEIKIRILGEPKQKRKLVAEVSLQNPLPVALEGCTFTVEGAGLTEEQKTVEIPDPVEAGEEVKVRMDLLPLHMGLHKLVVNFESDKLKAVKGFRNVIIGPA

T2: TG2 activity in HepG2 cell homogenate (Homo sapiens, UniProt P21980)
T2 construct: endogenous in cells; host or cells: HepG2
T2 sequence (P21980 1-687): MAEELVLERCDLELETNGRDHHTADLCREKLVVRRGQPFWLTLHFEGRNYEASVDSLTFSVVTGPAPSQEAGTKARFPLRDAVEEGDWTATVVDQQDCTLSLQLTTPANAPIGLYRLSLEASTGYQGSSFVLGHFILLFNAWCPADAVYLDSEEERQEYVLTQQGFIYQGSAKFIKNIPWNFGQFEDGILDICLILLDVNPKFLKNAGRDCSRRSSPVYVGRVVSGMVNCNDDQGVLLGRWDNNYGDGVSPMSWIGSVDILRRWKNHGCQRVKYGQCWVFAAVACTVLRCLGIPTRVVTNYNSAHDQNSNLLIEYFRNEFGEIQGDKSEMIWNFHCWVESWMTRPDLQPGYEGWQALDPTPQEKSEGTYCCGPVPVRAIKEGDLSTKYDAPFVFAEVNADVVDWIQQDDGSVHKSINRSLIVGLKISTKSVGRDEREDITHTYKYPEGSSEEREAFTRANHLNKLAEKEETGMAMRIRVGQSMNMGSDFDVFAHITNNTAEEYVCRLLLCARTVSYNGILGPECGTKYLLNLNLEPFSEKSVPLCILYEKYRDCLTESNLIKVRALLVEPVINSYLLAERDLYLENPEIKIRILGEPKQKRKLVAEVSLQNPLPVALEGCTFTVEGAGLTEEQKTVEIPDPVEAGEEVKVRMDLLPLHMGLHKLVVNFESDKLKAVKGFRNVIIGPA

T3: extracellular TG2 in human HK-2 cells (Homo sapiens, UniProt P21980)
T3 construct: endogenous in cells; host or cells: HK-2 (kidney proximal tubular epithelium)
T3 sequence (P21980 1-687): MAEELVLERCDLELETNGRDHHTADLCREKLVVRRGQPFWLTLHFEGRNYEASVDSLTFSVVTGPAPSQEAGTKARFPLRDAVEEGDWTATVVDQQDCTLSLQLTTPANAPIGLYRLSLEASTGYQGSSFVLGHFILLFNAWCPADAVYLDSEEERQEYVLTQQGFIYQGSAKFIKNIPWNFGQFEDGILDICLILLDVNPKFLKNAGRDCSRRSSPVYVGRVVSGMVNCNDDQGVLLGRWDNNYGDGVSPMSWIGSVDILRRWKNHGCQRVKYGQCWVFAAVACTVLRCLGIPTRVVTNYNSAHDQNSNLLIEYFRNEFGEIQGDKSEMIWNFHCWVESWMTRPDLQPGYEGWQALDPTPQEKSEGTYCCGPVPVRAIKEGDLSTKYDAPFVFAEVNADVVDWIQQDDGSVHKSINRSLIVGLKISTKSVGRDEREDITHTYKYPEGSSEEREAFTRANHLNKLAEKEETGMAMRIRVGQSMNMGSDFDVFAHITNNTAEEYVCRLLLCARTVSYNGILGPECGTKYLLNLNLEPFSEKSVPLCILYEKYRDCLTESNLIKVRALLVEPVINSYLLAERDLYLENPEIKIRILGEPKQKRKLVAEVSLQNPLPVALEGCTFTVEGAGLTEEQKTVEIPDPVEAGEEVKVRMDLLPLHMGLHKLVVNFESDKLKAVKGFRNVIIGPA


Experiments:
human TG2 = target: T1, human TG2; experiment: 3H-putrescine incorporation TG activity assay with recombinant human TG2; format: biochemical; conditions: for hybridoma supernatant ability to inhibit TG2 activity: initial screen of conditioned medium, 100 ng of TG2
Method: To determine an IC50 value for each antibody against human, rat and mouse the ^3H Putrescine assay was used. 100 ng of human TG2 or 25 ng of mouse and rat TG2 was used to generate a reaction where approximately 3000 cpm of Putrescine were incorporated per hour in 10 ul of the reaction mixture. Serial dilutions of each antibody were then applied starting from adding 500 ng (5 ug/ml final concentration) to the reaction mixture and incubated with the TG2 for 20 minutes prior to activating the reaction. IC50 values were calculated by determining the concentration at which the enzymatic rate of reaction was reduced by 50% using an appropriate curve fit in graphpad prism. Values are expressed as the amount of IgG in […] in the reaction that would inhibit 1 ng of TG2.
TG activity is measured by the Ca^2+ dependent incorporation of ^3H-putrescine into N′,N′-dimethylcasein. Recombinant human TG2 (100 ng) was pre-incubated for twenty minutes at room temperature with the test sample (conditioned medium or purified IgG) before starting the reaction. Twenty-five μl of reaction mix (5 μl of 25 mM CaCl2, 5 μl of 40 mM dithiothreitol, 5 μl ^3H-putrescine mix, and 10 μl 25 mg/ml of N,N′ dimethylcasein (replace 25 mM CaCl2 with 100 mM EDTA for a non-enzymatic control) was added to start the reaction and the samples incubated at 37° C. for up to 1 hour. Aliquots of 10 μl were spotted onto a strip of 3 MM Whatman filter paper and plunged immediately into ice-cold 10% trichloroacetic acid (TCA) in order to precipitate the cross-linked proteins typically at time 0, 10, 30 and 60 minutes into the reaction. After three extensive washes in ice-cold 5% TCA followed by 3 rinses with ice-cold 95% ethanol, the air dried filter was counted in 2 ml of scintillation fluid (Ultima Gold Packard, Perkin Elmer). The rate of reaction was calculated. 1 TG unit is equivalent to the incorporation of 1 nmol of putrescine per hour at 37° C.

[1] = target: T2, TG2 activity in HepG2 cell homogenate; experiment: 3H putrescine incorporation TG activity assay in HepG2 cell homogenate; format: biochemical
Method: A: Hep2G cells were lysed and 45 ug of protein mixed with 750 ng of IgG from AB1, DH2, DD9, BB7, DC1 and EH6 for 20 minutes. This was subsequently assayed using the ^3H Putrescine incorporation TG activity assay with sampling over 1 hour. The rate of reaction was calculated and expressed as a percentage of the same lysate incubated with a random antibody (MAB002). Data represents the mean percentage inhibition ±SEM from 2 separate experiments done in duplicate. *p<0.05
HepG2 cells were kindly supplied by Richard Ross (University of Sheffield). Cells were routinely grown at 37° C. in a 95% humidified atmosphere of 5% CO2 in DMEM/4.5 g per liter glucose supplemented with 10% foetal calf serum (FCS), 100 IU penicillin and 100 μg/ml streptomycin, 2 mM I-glutamine (all GIBCO). Two million cells were seeded on a 10 cm dishes and grown for 48 hours. Cells were lysed in 250 μl of STE buffer (0.32M sucrose, 5 mM Tris, 1 mM EDTA containing protease inhibitors Phenylmethylsulphonyl fluoride (1 mM), benzamidine (5 mM), and leupeptin (10 μg/ml) and sonicated on ice to produce a cell lysate usable in TG2 activity assay.
The same protocol was used to assess TG inhibition in cell lysates by replacing the 25 μl of recombinant protein with 25 μl of cell lysate.

[2] = target: T3, extracellular TG2 in human HK-2 cells; experiment: Extracellular TG activity in HK-2 cells, biotin cadaverine incorporation into fibronectin (Example 1); format: cell-based
Method: HK2 cells were plated onto fibronectin and incubated for 2 hours in the presence of 0.1M biotin cadaverine with either 4 ng/μl of human anti-TG2 antibody (AB1) (part A), 4 ng/μl of human anti-TG2 antibody (DC1) (part B) or 400 μM of the site-specific pan TG inhibitor 1,3-Dimethyl-2-[(2-oxo-propyl)thio]imidazolium chloride. […] Changes in optical density were measured at 450 nm in a 96 well plate reader. Data represents mean OD at 450 nm corrected to 1 mg of cell protein. n=6 wells per experimental group.
Extracellular TG activity was measured by modified cell ELISA. HK-2 epithelial cells were harvested using 0.1M EDTA or 0.25% trypsin/EDTA and plated at a density of 8×10^4 cells/well in serum free medium onto a 96 well plate that had been coated overnight with 100 μl/well of fibronectin (5 μg/ml in 50 mM Tris-HCl pH 7.4) (Sigma, Poole UK). Cells were allowed to attach for 2.5 h at 37° C. in the presence of the 0.1 mM biotin cadaverine [N-(5 amino pentyl biotinamide) trifluoroacetic acid] (Molecular Probes, Eugene Oreg., USA). Plates were washed twice with 3 mM EDTA/PBS and cells removed with 0.1% (w/v) deoxycholate in 5 mM EDTA/PBS. The supernatant was collected and used for protein determination. […] The reaction was stopped with 50 μl 2.5 M H2SO4 and the absorbance read at 450 nm.

hybridoma supernatant ability to inhibit TG2 activity (human TG2) | Molecule | other results
able to inhibit TG2 activity | EH6: murine monoclonal anti-TG2 IgG, Group 1; VH and VK in FIG. 22 (antibody, V domains shown) VH: EVQLQQSGPELVKPGASVKMSCKASGYTFTSYVMHWVKQKPGQGLEWIGFINPYNDGTKYNEKFKGKATLTSDKASTTAYMELSSLTSEDSAVYYCARFSSGYWGQGTTLTVSS VL: DVLMTQTPLSLPVSLGDQASISCRSSQSIVHSNGNTYLEWYLQKPGQSPKLLIYKVSNRFSGVPDRFSGSGSGTDFTLKISRVGAEDLGVYYCLQVSHVPFTFGSGTKLEIK | –
able to inhibit TG2 activity | JE12: murine monoclonal anti-TG2 IgG, Group 1; VH and VK in FIG. 21 (antibody, V domains shown) VH: EVQLQQSGPELVKPGASVKMSCKASGYRFTSYVMHWVKQKSGQGLEWIGYINPYNDGAKYNEKFKGKATLTSDKSSSTAYMELSSLTSEDSAVYYCARLSSDYWGQGTTLTVSS VL: DVLMTQNPLSLPVSLGDQASISCRSSQSIEHINGNTYLEWYLQKPGQSPKFLIYKVSNRFSGVPDRFSGSGSGTDFTLRISRVEAEDLGIYYCFQGSHVPFTFGGGTKLEIK | –

Second part, the molecule before the results:

Molecule | hybridoma supernatant ability to inhibit TG2 activity (human TG2) | other results
BB7: murine monoclonal anti-TG2 IgG, Group 1; VL SEQ ID NO: 60, VH SEQ ID NO: 61 (antibody, V domains shown, BB-7 heavy chain variable region; BB-7 light chain variable region) VH: AVQLVESGGGLVKPGGSLKLSCAASGIIFSSSAMSWVRQTPEKRLEWVATISSGGRSTYYPDSVKGRFTVSRDSAKNTLYLQMDSLRSEDTAIYYCAKLISPYWGQGTTLTVSS VL: AIKMTQSPSSMYASLGERVIITCKASQDINSYLTWFQQKPGKSPKTLIYLTNRLMDGVPSRFSGSGSGQEFLLTISGLEHEDMGIYYCLQYVDFPYTFGGGTKLEIK | able to inhibit TG2 activity | inhibition of TG2 activity in HepG2 homogenate ([1]; 0.5 μg of antibody, 45 ug lysate protein): 90%
AH3: murine TG2 inhibitory monoclonal antibody; VH and VK in FIG. 24 (antibody, V domains shown) VH: EVQLQQSGPELVKPGASVKMSCRASGYTFTTYVIHWVKQKPGQGLEWIGYINPYNDGARYNEKFKGKATLTSDKSSTTAYMELSSLTSEDSAVYYCARLSSDYWGQGTTLTVSS VL: DVLMTQNPLSLPVSLGDQASISCRSSRSIEHSNGNTYLEWYLQKPGQSPKFLIYKVSNRFSGVPDRFSGSGSGTDFTLRISSVEAEDLGVYYCFQGSHVPFTFGGGTKLEIK | able to inhibit TG2 activity | –
AG9: murine TG2 inhibitory monoclonal antibody; VH and VK in FIG. 23 (antibody, V domains shown) VH: EVQLQQSGPELVKPGASVKMSCRASGYTFTTYVIHWVKQKPGQGLEWIGYINPYNDGARYNEKFKGKATLTSDKSSTTAYMELSSLTSEDSAVYYCARLSSDYWGQGTTLTVSS VL: DVLMTQNPLSLPVSLGDQASISCRSSRSIEHSNGNTYLEWYLQKPGQSPKFLIYKVSNRFSGVPDRFSGSGSGTDFTLRISSVEAEDLGVYYCFQGSHVPFTFGGGTKLEIK | able to inhibit TG2 activity | –
DC1: murine monoclonal anti-TG2 IgG, Group 1; VL SEQ ID NO: 70, VH SEQ ID NO: 71 (antibody, V domains shown, DC-1 heavy chain variable region; DC-1 light chain variable region) VH: EVQLVESGGGLVKPGGSLKLSCAASGFTLSTHAMSWVRQTPEKRLEWVATISSGGRSTYYPDSVKGRFTISRDNVKNTLYLQLSSLRSEDTAVYFCARLISTYWGQGTTLTVSS VL: DITMTQSPSSIYASLGERVTITCKASQDINSYLTWFQQKPGKSPKILIYLVNRLVDGVPSRFSGSGSGQDYALTISSLEYEDMGIYYCLQYDDFPYTFGGGTKLEIK | able to inhibit TG2 activity | IC50 against human TG2 (human TG2; amount of IgG in the reaction that would inhibit 1 ng of TG2, 100 ng human TG2): 0.011 µg/mL; inhibition of TG2 in human Hep2G cells (in words) [1]: able to inhibit TG2 successfully; inhibition of extracellular TG activity ([2]; 4 ng/ul in the culture media): 55%; inhibition of extracellular TG2 in human HK-2 cells (in words) ([2]; applied to the culture media): able to inhibit TG2 successfully
